Test results taken from patent US20160340683A1, “NANOCARRIER BASED PLANT TRANSFECTION AND TRANSDUCTION” (HER MAJESTY THE QUEEN IN RIGHT OF CANADA AS REPRESENTED BY …, priority 2007, published 2016).

System: isolated microspores of Triticale (variety Sunray)
Assay: CPP delivery of GUS enzyme into isolated microspores, GUS staining
Format: cell-based
Conditions: GUS enzyme cargo:CPP 1:4, 1 hour at 37° C., three repeats
Description: Triticale line Sunray grown in a growth cabinet with a photoperiod of 19 h day (intensity 300 μE m-2 s-1), and temperature 18-15° C. (day-night) with a relative humidity at about 70% was used as the donor plant material. The plants were fertilized every 2 weeks (20-20-20, 200 ppm) and treated with 2.5 ml I-1 Tilt™ (propiconazole, Syngenta) during the tillering stage and Intercept™ (0.004 g per litre of soil, Imidacloprid, Bayer) once sufficient root development was established. The first 10 tillers from each pot were harvested when the spike was at 3-4 cm, depending on the crop, from emergence from the boot. These tillers (to be used for microspore isolation) were subjected to pre-treatment in a refrigerator (4° C.) for 21 days with their bases in distilled water and their heads wrapped in aluminum foil. After 21±3 days of pre-treatment, the spikes were excised from their tillers and after an evaluation of their general appearance, only the most homogenous spikes were used. After confirming microspores at mid to bi-nucleate stage from a median floret, using acetocarmine staining, the tillers were processed for extraction.
Awns were removed with scissors in a laminar flow hood. […] After counting the cells using a haemocytometer, aliquots of 100,000 cells in 200 μl volume were prepared in 2 ml microcentrifuge tubes to be ready for transduction. […]

B1: Gus protein: β-Glucuronidase (GUS; Sigma Aldrich, Escherichia coli Type VII-A), cargo used alone (protein, UniProt P05804 1-603, looked up)
Beta-glucuronidase: MLRPVETPTREIKKLDGLWAFSLDRENCGIDQRWWESALQESRAIAVPGSFNDQFADADIRNYAGNVWYQREVFIPKGWAGQRIVLRFDAVTHYGKVWVNNQEVMEHQGGYTPFEADVTPYVIAGKSVRITVCVNNELNWQTIPPGMVITDENGKKKQSYFHDFFNYAGIHRSVMLYTTPNTWVDDITVVTHVAQDCNHASVDWQVVANGDVSVELRDADQQVVATGQGTSGTLQVVNPHLWQPGEGYLYELCVTAKSQTECDIYPLRVGIRSVAVKGEQFLINHKPFYFTGFGRHEDADLRGKGFDNVLMVHDHALMDWIGANSYRTSHYPYAEEMLDWADEHGIVVIDETAAVGFNLSLGIGFEAGNKPKELYSEEAVNGETQQAHLQAIKELIARDKNHPSVVMWSIANEPDTRPQGAREYFAPLAEATRKLDPTRPITCVNVMFCDAHTDTISDLFDVLCLNRYYGWYVQSGDLETAEKVLEKELLAWQEKLHQPIIITEYGVDTLAGLHSMYTDMWSEEYQCAWLDMYHRVFDRVSAVVGEQVWNFADFATSQGILRVGGNKKGIFTRDRKPKSAAFLLQKRWTGMNFGEKPQQGGKQ
  Average Transduction Efficiency: not capable of transducing itself
